Assay results from publication PMC8892012.

Molecular target: arrestin-3 fused to Renilla luciferase (UniProt P32121)
Assay: BRET arrestin-3 interaction assay
Conditions: maximal zaprinast-stimulated BRET; receptor-eYFP co-transfected with arrestin-3-Renilla luciferase; n = 3, ± SD; parent: est. 100; read off a plot

Chain of UniProt P32121 (P32121 whole entry, the tested form may be a part): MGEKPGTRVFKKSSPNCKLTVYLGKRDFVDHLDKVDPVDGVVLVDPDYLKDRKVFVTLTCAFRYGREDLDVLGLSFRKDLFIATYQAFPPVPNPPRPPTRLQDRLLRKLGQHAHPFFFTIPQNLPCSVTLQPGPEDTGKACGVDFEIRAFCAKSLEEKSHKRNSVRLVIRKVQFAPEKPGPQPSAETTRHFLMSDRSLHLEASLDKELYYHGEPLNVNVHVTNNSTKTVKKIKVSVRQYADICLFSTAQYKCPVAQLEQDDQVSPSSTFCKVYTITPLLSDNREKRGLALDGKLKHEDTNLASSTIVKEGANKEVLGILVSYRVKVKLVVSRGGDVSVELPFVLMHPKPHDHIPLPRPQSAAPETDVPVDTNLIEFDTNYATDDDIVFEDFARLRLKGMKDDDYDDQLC

| percent of parent (% WT response) | Substance |
| --- | --- |
| 125 | rGPR35-eYFP S286A |
| 7 | rGPR35-eYFP S286A; T290A; S291A; S292A; T293A; S297A; T300A; S302A; S304A; T306A |
| 10 | rGPR35-eYFP S297A; T300A |
| 33 | rGPR35-eYFP S302A; S304A; T306A |
| 83 | rGPR35-eYFP T290A; S291A; S292A; T293A |
